Test results as given in paper PMC8139597.

Molecular target: GFP11(×7)-actin (actin fused to a seven-copy array of GFP11)
Assay: split reporter

fold brightness of the GFP channel versus GFP11(×1)-actin [fold]	Substance
3.6	FluoSTEP-ICUE (mRuby2-Epac1(149 to 881)-GFP1–10)
> 5	FluoSTEP-AKAR (R-G1–10–FluoSTEP-AKAR; mRuby2-FHA1-PKAsub-GFP1–10)
